T1: CD20 on CD20-positive human lymphoma cell lines Raji and ST-486 (human, UniProt P11836 1-297)
T1 construct: whole, on cells
T1 sequence (looked up): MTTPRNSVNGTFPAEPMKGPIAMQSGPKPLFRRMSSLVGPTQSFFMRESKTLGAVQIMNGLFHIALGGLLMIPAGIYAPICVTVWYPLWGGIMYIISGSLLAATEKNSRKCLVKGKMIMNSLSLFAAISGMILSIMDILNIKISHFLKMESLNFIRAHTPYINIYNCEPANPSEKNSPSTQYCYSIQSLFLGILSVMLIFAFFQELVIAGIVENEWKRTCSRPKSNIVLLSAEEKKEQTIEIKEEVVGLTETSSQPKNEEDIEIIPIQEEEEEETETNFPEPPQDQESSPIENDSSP

B1: anti-CD20 IgG1 defucosylated antibody GA101/IgG1 DF (antibody, V domains shown)
VH: QVQLVQSGAEVKKPGSSVKVSCKASGYAFSYSWMNWVRQAPGQGLEWMGRIFPGDGDTDYNGKFKGRVTITADKSTSTAYMELSSLRSEDTAVYYCARNVFDGYWLVYWGQGTLVTVSS
VL: DIVMTQTPLSLPVTPGEPASISCRSSKSLLHSNGITYLYWYLQKPGQSPQLLIYQMSNLVSGVPDRFSGSGSGTDFTLKISRVEAEDVGVYYCAQNLELPYTFGGGTKVEIK
B2: anti-CD20 IgG1 type defucosylated monovalent antibody GA101/mvG1-2 DF (antibody, V domains shown)
VH: QVQLVQSGAEVKKPGSSVKVSCKASGYAFSYSWMNWVRQAPGQGLEWMGRIFPGDGDTDYNGKFKGRVTITADKSTSTAYMELSSLRSEDTAVYYCARNVFDGYWLVYWGQGTLVTVSS
VL: DIVMTQTPLSLPVTPGEPASISCRSSKSLLHSNGITYLYWYLQKPGQSPQLLIYQMSNLVSGVPDRFSGSGSGTDFTLKISRVEAEDVGVYYCAQNLELPYTFGGGTKVEIKR
notes: Same chains as GA101/mvG1-2 F, made in CHO/FUT8KO (no core fucose)
B3: anti-CD20 IgG1 type monovalent antibody GA101/mvG1-2 F (antibody, V domains shown)
VH: QVQLVQSGAEVKKPGSSVKVSCKASGYAFSYSWMNWVRQAPGQGLEWMGRIFPGDGDTDYNGKFKGRVTITADKSTSTAYMELSSLRSEDTAVYYCARNVFDGYWLVYWGQGTLVTVSS
VL: DIVMTQTPLSLPVTPGEPASISCRSSKSLLHSNGITYLYWYLQKPGQSPQLLIYQMSNLVSGVPDRFSGSGSGTDFTLKISRVEAEDVGVYYCAQNLELPYTFGGGTKVEIKR
notes: Heterodimer of VH-CH and VL-CL-Fc

In this assay the target is T1, CD20 on CD20-positive human lymphoma …. Nature of the assay: flow cytometry competition on Raji cells, competitor GA101_Alx. For orientation: Flow cytometry measures light scatter and fluorescence of single cells or particles in a stream.
Source text: CD20-positive human lymphoma cell line Raji (JCRB9012) and HER2-positive human breast cancer cell line SK-BR-3 (ATCC: HTB-30) were used to perform flow cytometry.
Further, hIgG1_Alx was used as a negative control. After washing with FACS buffer, a flow cytometer Cytomics FC 500 MPL (Beckman Coulter) was used for measurement.
In the case of B1, the binding result is on record as “binds”.

As for B2, the binding result is given as “binds”.

For B3, the binding result was “binds”.

For the origin of these results see patent US20170362323A1 (Kyowa Kirin, published 2017).
